Tested on: MS2 coat protein
Assay: apparent KD of MS2 coat protein; higher = weaker reporter binding
Conditions: Eterna round: R107
How it was run: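 Normalised binding curves from single clusters were fitted, and the median fit for each design is given as apparent KD. The clusters held designed RNA switches transcribed on-chip from Illumina sequencing clusters. These were titrated with SNAP-549-labelled MS2 coat protein (twofold steps from 0.7 or 1.5 nM to 3 µM, 0.8–1.5 h to 10–20 min per step) in 100 mM Tris-HCl pH 7.5, 80 mM KCl, 4 mM MgCl2, without or with constant ligand.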

[1] = input ligand: theophylline 20 uM
[2] = input ligand: theophylline 2 mM
[3] = input ligand: tryptophan 2.4 mM

Sequence | apparent KD of MS2 coat protein (input ligand: arginine 13.2 mM) [nM] | apparent KD of MS2 coat protein (input ligand: none) [nM] | apparent KD of MS2 coat protein [1] [nM] | apparent KD of MS2 coat protein [2] [nM] | apparent KD of MS2 coat protein [3] [nM]
CACAUGAGGAUCACCCAUGUCUGAACUGAAGGAGCGCUAAAUAAGGCAGGUAGGUCGCGGAAUUUUGUGUGCAUAUGCAUAUGGG [9.M] | 23.8 | 26.8 | 37.2 | 34.2 | 28.8
CACUACAUGAGGAUCACCCAUGUAUACUGACGAGGACCGGUACGGCCGCCACUCGAACCGAAACCGACUUCAUUCUGUGUACCAU [theeternabot_sameState_MS2_Trp_A_26] | 15 | – | 22.7 | 19.3 | –
CAGAACAUGAGGAUCACCCAUGUAAACGACCGAGGACCGGUACGGCCGCCACUCGAUAUGUCUUGAGGGAGAUAUGGAUUCACAU [theeternabot_sameState_MS2_Trp_A_46] | 23 | – | 51.4 | 44.4 | –
CAGAACAUGAGGAUCACCCAUGUCAGGGAUACCAGCUCAGACAUGGGCCCUUGGCAGCUCUGUGGCUGACGAAAGUCAGCAUCUG [#17 SameState-TheophyllineA] | 17.5 | – | 109 | – | 19.5
CAGCCACAUGAGGAUCACCCAUGUGAUGAUACCAGCUUCGUCUUAAGCCCUUGGCAGCAUAUCUCUUUGUUCUCAUACAUAGCAU [theeternabot_sameState_MS2_Theo_A_16] | 12 | – | 17.3 | – | 11.4
CAGUGAGAACGAAGGAGCGCUGAAUGAUGUGGACAUGAGGAUCACCCAUGUUAAGUCCAAUGGCAGGUAGGUCGCGUAACACUAG [Same State - Arginine B] | 14.1 | 15.8 | 11.9 | 12.7 | 15.8
CAGUGAGAGUCGGCCGCCACUUAACGCAAGUAGCGCAACCCAAAACAUGAGGAUCACCCAUGUCGAAGGACCGGGACAAUGAGCG [theeternabot_sameState_MS2_Trp_B_47] | 11.5 | – | 16.7 | 11.7 | –
CAUAUUGUAACUGAUACCAGUGUACUGACAUGAGGAUCACCCAUGUUGGGUUUUGUUGUACACCCUUGGCAGCAGAAUCAAUAUG [AstrosExyTheB#4] | 45.6 | – | 74.2 | – | 60.4
CAUCGGGCGGUAAAUGGCGGGUACGGUGAUACCAGUUUUUGAUUUAACCCUUGGCAGCACUAUACAUGAGGAUCACCCAUGUAAU [theeternabot_exclusion_MS2_Theo_A_15] | 17.7 | – | 23.2 | – | 19.5
CAUGCGGCUAGUGAGCGUGGUGAGUAAAGGCGAGGACCGGUACGGCCGCCACUCGAGGCAAGACAUGAGGAUCACCCAUGUUGUA [theeternabot_exclusion_MS2_Trp_A_27] | 10.8 | – | 19.3 | 15.9 | –
CAUUAAUUACGAAGGAGCGUCGAGAAUGGGUAAACAUGAGGAUCACCCAUGUGAAGGGAACGGCAGGUAGGUCGCGUAAUUAAUG [#22 Same State - Arginine B] | 105 | 97.2 | 116 | 75.1 | 60.5
CCAUAAGUACCGGUCCUCAGAUCCUCAUGACGAGGACCGGUACGGCCGCCACUCGAAACAUGAGGAUCACCCAUGUAAUAAUACC [Brourdmod18] | 26.4 | – | 101 | 97.6 | –
CCAUGCAGGUCGGCCGCCACUACACACAUGAGGAUCACCCAUGUAGUUACUGGGUGAAGUGGCAGUAGGACCGGGACCUGCACAU [Brourdmod19] | 94.7 | – | 326 | 541 | –
CCAUGGCUAGGAAGGAGCGCAUACUUCACAUGAGGAUCACCCAUGUCGAGACGUGAGUCAGUGCAGGUAGGUCGCCUAGCCAUGG [Same State - Arginine B (Freestyle 30)] | 19.8 | 16.7 | 29.2 | 24.8 | 18.6
CCCAAAUAGAUAUUUGGGAUUUUACUCGAAGGAGCGUCAUAGUAGGCAGGUAGGUCGCGAGACAUGAGGAUCACCCAUGUAGAGA [ss-argA-N] | 34.1 | 41.1 | 45.9 | 45.1 | 40.9
CCCAGUUAUAACAAAGGAAUAAUACUCGAAGGAGCGUCAUAGUAGGCAGGUAGGUCGCGAGACAUGAGGAUCACCCAUGUAGAGA [qvvmullin] | 34.3 | 46 | 49.5 | 32.2 | 32.8
CCGACGAUGACUAUGGGUCAGGAGUGCGUACGAGGACCGGUACGGCCGCCACUCGAGGAGUGGGACAUGAGGAUCACCCAUGUGG [#19 Exclusion Tryptophan A] | 44.6 | 50.2 | 49.8 | 54.8 | 47.8
CCGCACAUGAGGAUCACCCAUGUCAGGGAUACCAGCCCAGACAUGGGCCCUUGGCAGCCCUGUAGCUGACGAAAGUCAGCAGCGG [Omei Theo A SS A v1] | 51.9 | 31.7 | 277 | 57.6 | 44.7
CCGCCCACGAAUGAUACCAGCUAAAAUCAUGUACCAGACACAUGAGGAUCACCCAUGUAAAGCCCUUGGCAGCGUACGCCACCCG [e-theoB-?] | 25.5 | – | 43.7 | – | 25.8
CCGGGCUGUGGAGACAUAGCCCGGACUGAAGGAGCGGGAAUAAACCCAGGUAGGUCGCAGAGAUCCACAUGAGGAUCACCCAUGU [!0.S] | 34.4 | 34 | 40.9 | 46.8 | 36.7
